Data taken from patent US20150329642A1 (Genmab, published 2015).
One block for each binder: values may come before it.

Legend:
cMetECDHis [1] = target: T1, cMetECDHis (human, UniProt P08581 25-932, limits assumed, biotinylated in the cross-block ELISA of Example 17); test: cross-block ELISA; competitor 005
T1 construct: Expressed in HEK-293F cells; also called soluble cMetECDHis; biotinylated cMetECDHis
Protocol: (§1) First, the optimal coating concentrations of the tested anti-c-Met antibodies and the optimal cMetECDHis concentration were determined. Therefore, ELISA wells were coated overnight at 4° C. with anti-c-Met HuMabs serially diluted in PBS (8 μg/mL in 2-fold dilutions). Next, the ELISA wells were washed with PBST (PBS supplemented with 0.05% Tween-20 [Sigma-Aldrich, Zwijndrecht, The Netherlands]) and blocked for one hour at room temperature (RT) with PBSTC (PBST supplemented 2% [v/v] chicken serum [Gibco, Paisley, Scotland]). Subsequently, the ELISA wells were washed with PBST and incubated for one hour at RT with biotinylated cMetECDHis serially diluted in PBSTC (1 μg/mL in 2-fold dilutions). Unbound biotinylated cMetECDHis was washed away with PBST, and bound biotinylated cMetECDHis was incubated for one hour at RT with 0.1 μg/mL Streptavidin-poly-HRP (Sanquin, Amsterdam, The Netherlands) diluted in PBST.
(§2) ELISA wells were coated with anti-c-Met antibody at a sub-optimal dose as described above. After blocking of the ELISA wells, they were incubated with the predetermined concentration of biotinylated cMetECDHis in the presence of an excess of anti-c-Met antibody. The reaction was developed as described above. Residual binding was expressed as a percentage relative to the binding observed in the absence of competitor antibody.

cMetECDHis [2] = target: T1, cMetECDHis; test: cross-block ELISA; competitor 006
Protocol: as §1, §2

cMetECDHis [3] = target: T1, cMetECDHis; test: cross-block ELISA; competitor 008
Protocol: as §1, §2

cMetECDHis [4] = target: T1, cMetECDHis; test: cross-block ELISA; competitor 022
Protocol: as §1, §2

cMetECDHis [5] = target: T1, cMetECDHis; test: cross-block ELISA; competitor 035
Protocol: as §1, §2

cMetECDHis [6] = target: T1, cMetECDHis; test: cross-block ELISA; competitor 045
Protocol: as §1, §2

cMetECDHis [7] = target: T1, cMetECDHis; test: cross-block ELISA; competitor 058
Protocol: as §1, §2

cMetECDHis [8] = target: T1, cMetECDHis; test: cross-block ELISA; competitor 062
Protocol: as §1, §2

cMetECDHis [9] = target: T1, cMetECDHis; test: cross-block ELISA; competitor 064
Protocol: as §1, §2

cMetECDHis [10] = target: T1, cMetECDHis; test: cross-block ELISA; competitor 068
Protocol: as §1, §2

cMetECDHis [11] = target: T1, cMetECDHis; test: cross-block ELISA; competitor 069
Protocol: as §1, §2

cMetECDHis [12] = target: T1, cMetECDHis; test: cross-block ELISA; competitor 098
Protocol: as §1, §2

cMetECDHis [13] = target: T1, cMetECDHis; test: cross-block ELISA; competitor 101
Protocol: as §1, §2

cMetECDHis [14] = target: T1, cMetECDHis; test: cross-block ELISA; competitor 181
Protocol: as §1, §2

cMetECDHis [15] = target: T1, cMetECDHis; test: cross-block ELISA; competitor 5D5
Protocol: as §1, §2

cMetECDHis [16] = target: T1, cMetECDHis; test: cross-block ELISA; competitor G11-HZ
Protocol: as §1, §2

cMetECDHis [17] = target: T1, cMetECDHis; test: BLI (Octet); antibody captured, cMetECDHis in solution
How it was run: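 Antibodies captured on Fc-specific anti-human IgG biosensors; HEK293-derived cMetECDHis at 10 μg/mL in diluted kinetics buffer bound for about 10 min, then dissociation in buffer alone. ka, kd and KD from 1:1 Langmuir fit.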

- residual binding, % of no competitor (cMetECDHis [1]): 91.5%
- residual binding, % of no competitor (cMetECDHis [2]): 89.7%
- residual binding, % of no competitor (cMetECDHis [3]): 94%
- residual binding, % of no competitor (cMetECDHis [4]): 90.7%
- residual binding, % of no competitor (cMetECDHis [5]): 96.7%
- residual binding, % of no competitor (cMetECDHis [6]): 94.7%
- residual binding, % of no competitor (cMetECDHis [7]): 93.1%
- residual binding, % of no competitor (cMetECDHis [8]): 36.9%
- residual binding, % of no competitor (cMetECDHis [9]): 37.4%
- residual binding, % of no competitor (cMetECDHis [10]): 45.9%
- residual binding, % of no competitor (cMetECDHis [11]): 9.5%
- residual binding, % of no competitor (cMetECDHis [12]): 9.7%
- residual binding, % of no competitor (cMetECDHis [13]): 3.7%
- residual binding, % of no competitor (cMetECDHis [14]): 41.9%
- residual binding, % of no competitor (cMetECDHis [15]): 97.2%
- residual binding, % of no competitor (cMetECDHis [16]): 98.3%
- Kd (cMetECDHis [17]): 1.27 nM
- koff (cMetECDHis [17]): 0.000214 s⁻¹
- kon (cMetECDHis [17]): 169000 M⁻¹ s⁻¹
B1: anti-c-Met HuMab 101 (IgG1) (antibody, V domains shown)
VH: QVQLVQSGGEVKKPGASVKVSCKASGYTFTRHGITWVRQAPGQGLEWMGWISADNGNTNYAQKFQDRVTMTTDTSTSTAYMELRSLRSDDTAVYFCARVFRYFDWLLPYFDYWGQGTLVTVST
VL: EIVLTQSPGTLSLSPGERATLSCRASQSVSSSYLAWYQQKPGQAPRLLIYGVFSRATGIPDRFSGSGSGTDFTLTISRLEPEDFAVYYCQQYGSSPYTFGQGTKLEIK

- residual binding, % of no competitor (cMetECDHis [1]): 31.4%
- residual binding, % of no competitor (cMetECDHis [2]): 43.6%
- residual binding, % of no competitor (cMetECDHis [3]): 90.2%
- residual binding, % of no competitor (cMetECDHis [4]): 6.8%
- residual binding, % of no competitor (cMetECDHis [5]): 90.1%
- residual binding, % of no competitor (cMetECDHis [6]): 112%
- residual binding, % of no competitor (cMetECDHis [7]): 4%
- residual binding, % of no competitor (cMetECDHis [8]): 109%
- residual binding, % of no competitor (cMetECDHis [9]): 109%
- residual binding, % of no competitor (cMetECDHis [10]): 119%
- residual binding, % of no competitor (cMetECDHis [11]): 113%
- residual binding, % of no competitor (cMetECDHis [12]): 112%
- residual binding, % of no competitor (cMetECDHis [13]): 104%
- residual binding, % of no competitor (cMetECDHis [14]): 121%
- residual binding, % of no competitor (cMetECDHis [15]): 2.8%
- residual binding, % of no competitor (cMetECDHis [16]): 81.5%
- Kd (cMetECDHis [17]): 2.7 nM
- koff (cMetECDHis [17]): 0.00125 s⁻¹
- kon (cMetECDHis [17]): 464000 M⁻¹ s⁻¹
B2: IgG1-1016-058 (antibody, V domains shown)
VH: EVQLVESGGGLVKPGGSLKLSCAASGFTFSDYYMYWVRQTPEKRLEWVATISDDGSYTYYPDSVKGRFTISRDNAKNNLYLQMSSLKSEDTAMYYCAREGLYYYGSGSYYNQDYWGQGTLVTVSS
VL: AIQLTQSPSSLSASVGDRVTITCRASQGLSSALAWYRQKPGKAPKLLIYDASSLESGVPSRFSGSGSGTDFTLTISSLQPEDFATYYCQQFTSYPQITFGQGTRLEIK
notes: also called IgG1-058; TH1016-058
